Reference: the DeepSol protein solubility set

Assay: soluble on expression in E. coli; label from the status in PepcDB or PDB records

Sequence | soluble on expression in E. coli
MNDTSFENCIKCTVCTTACPVSRVNPGYPGPKQAGPDGERLRLKDGALYDEALKYCINCKRCEVACPSDVKIGDIIQRARAKYDTTRPSLRNFVLSHTDLMGSVSTPFAPIVNTATSLKPVRQLLDAALKIDHRRTLPKYSFGTFRRWYRSIAAQQAQYKDQVAFFHGCFVNYNHPQLGKDLIKVLNAMGTGVQLLSKEKCCGVPLIANGFTDKARKQAITNVESIREAVGVKGIPVIATSSTCTFALRDEYPEVLNVDNKGLRDHIELATRWLWRKLDEGKTLPLKPLPLKVVYHTPCHMEKMGWTLYTLELLRNIPGLELTVLDSQCCGIAGTYGFKKENYPTSQAIGAPLFRQIEESGADLVVTDCETCKWQIEMSTSLRCEHPITLLAQALA | not soluble
EITPLIFQKQTTEPVENLRTYTALEMEGRDIYIREGCNVCHSQMIRPFRAETERYGHYSVAGESVWEHPFLWGSKRTGPDLARVGQRYSDEWHRVHLINPRDVVPESNMPGFPWLEENVLDGELTSKKIAIFRDNFGVPYTEEDVKNASEEVKGKTEMDALIAYLQSLGH | not soluble
QILVVRGQVIFPFVPFSLDVGRPRSRKIIKALKTLKTKRLVLVTQKFTGEQNPEFNDIYHVGTLCEIDEIVDVPGVDSKTVDYRIKGRGLQRVLIEKFSDADINEVSYQLLNSTVKDEANVDRFLQRIFPEKEEIEQLMEGAEKFLELENISKTVNVPKGLKQLDIITFKLANLVPNTESIKQAILEENEIANRLEKIIQA | soluble
MSVEASNQENSLSSFLLKCAFPAGTTPPLLSPPSSSGSYEEAQFSLFVNQNETEQKLFSNQSLANRDPCTIPDELHQEMKSLKKKEEAFKTSLCGFHRRGQKCAYGEKCKFAHSVHELRFPQTKRNHRNYKTVLCNNFSTTGHCKYGIRCQFIHRSMNSTSSNQSNKMENITIDLNVQSDVFRAFALDSTSLLPNWHCSALLQ | not soluble
GPGSMVQRTLFDFVSKKGDNATTEEVGSKTESGQPSASSRKRTAEDQVANGGASNLTRARVAKENNGALASLIVDPGWEAFLKPLTTSSNFERIEKFLEGELNAGKTILPPREMIFSAFNSTPLDMLKVVLLGQDPYHNVGQAHGLCFSVLPGVPPPPSLINMYKELATDIPGFVAPQHGYLQHWAEQGVLMLNATLTVEIHKANSHATCGWQTFTDDVIRLLSEKHKNPLVFLLWGGFAKRKISLIDRKRHVVIECAHPSPLSAAKWWGSRPFSKCNTALVEKKLSPIDWKLPVCLSKGK | not soluble
MPAISMFYGIVIYLYFYDDERHKIPHIHAKYQGEDASVSIANGEILAGDIPLSKLRLVQAWIEIHRDALMADWALAVNGQPPFAIEPLRLEHHHHHH | not soluble
IVGGYTCEENSLPYQVSLNSGSHFCGGSLISEQWVVSAAHCYKTRIQVRLGEHNIKVLEGNEQFINAAKIIRHPKYNRDTLDNDIMLIKLSSPAVINARVSTISLPTAPPAAGTECLISGWGNTLSFGADYPDELKCLDAPVLTQAECKASYPGKITNSMFCVGFLEGGKDSCQRDAGGPVVCNGQLQGVVSWGHGCAWKNRPGVYTKVYNYVDWIKDTIAANS | soluble
MANVSLNKVDKQALVHQPNLLRECFALLVNAHYQTSPNDLLHLLRDDNSSVYLAMDKQNIIGVILTVEEGGLDDELIEAIQLGQRRPKGHLTPITIINQLGLVKVGKLITSRVMRIAVHPDLQGSGIGKRMLTLLEESVGAHVDYLSTSFGATDELIQFWQQAGYQSIRLGTMRDAASGCYSLLMVRQLANKSQ | not soluble
MCSHGHSHNCAAEHIPEVPGDDVYRYDMVSYIDMEKVTTLNESVDGAGKKVFKVMEKRDDRLEYVESDCDHELLFNIPFTGHVRLTGLSIIGDEDGSHPAKIRLFKDREAMSFDDCSIEADQEIDLKQDPQGLVDYPLKASKFGNIHNLSILVDANFGEDETKIYYIGLRGEFQHEFRQRIAIATYESRAQLKDHKNEIPDAVAKGLF | not soluble
MNVTFETTICAWDEKIPALLIRLVNTLLFCRTEEELRQSINKLRETAELDEFFTYGYGSHHFWCNQRISKGSMQFIQSRLFIATF | not soluble
MGHHHHHHSHMATSATSPHAPGFPAEGRCGYYVEKKKRFCRMVVAAGKRFCGEHAGAAEEEDARKRILCPLDPKHTVYEDQLAKHLKKCNSREKPKPDFYIQDINAGLRDETEIPEQLVPISSLSEEQLEKLIKKLRKASEGLNSTLKDHIMSHPALHDALNDPKNGDSATKHLKQQVCLGYSNY | not soluble
